Positions count from the first letter of the chain named. Names may count otherwise.
B1: MTSP-1 Q38L/I41T/D60bV/F60eH/Y60gL/ins97aE/F97T/T98G/F99L/C122S/Q175L/Q192S (enzyme)
chain: VVGGTDADEGEWPWQVSLHALGLGHTCGASLISPNWLVSAAHCYIDVRGHRLSDPTQWTAFLGLHDQSQRSAPGVQERRLKRIISHPFFNDTEGLDYDIALLELEKPAEYSSMVRPISLPDASHVFPAGKAIWVTGWGHTQYGGTGALILQKGEIRVINQTTCENLLPQLITPRMMCVGFLSGGVDSCSGDSGGPLSSVEADGRIFQAGVVSWGDGCAQRNKPGVYTRLPLFRDWIKENTGV
B2: MTSP-1 ins97aA/F97G/T98L/C122S/Q175M/Q192A/D217I/K224R (enzyme)
chain: VVGGTDADEGEWPWQVSLHALGQGHICGASLISPNWLVSAAHCYIDDRGFRYSDPTQWTAFLGLHDQSQRSAPGVQERRLKRIISHPFFNDGALFDYDIALLELEKPAEYSSMVRPISLPDASHVFPAGKAIWVTGWGHTQYGGTGALILQKGEIRVINQTTCENLLPQMITPRMMCVGFLSGGVDSCAGDSGGPLSSVEADGRIFQAGVVSWGIGCAQRNRPGVYTRLPLFRDWIKENTGV
B3: MTSP-1 Q38H/I41A/D60bY/F60eT/ins97aE/F97T/T98G/F99L/C122S/Q175L/Q192D (enzyme)
chain: B1 chain with L23H, T26A, V47Y, H50T, L52Y, S189D
B4: MTSP-1 ins97aY/F97H/F99L/C122S/Q175M/Q192A/D217V (enzyme)
chain: B2 chain with G92H, A93Y, L94T, F95L, I215V, R222K
B5: MTSP-1 ins97aL/F97Q/T98G/F99L/C122S/Q175M/Q192S/D217I (enzyme)
chain: B2 chain with G92Q, A93L, L94G, F95L, A189S, R222K
B6: MTSP-1 ins97aY/F97G/T98V/C122S/Q175M/Q192S/D217V (enzyme)
chain: B2 chain with A93Y, L94V, A189S, I215V, R222K
B7: MTSP-1 Q38Y/I41S/D60bR/F60eE/Y60gF/ins97aE/F97T/T98G/F99L/C122S/Q175L/Q192V (enzyme)
chain: B1 chain with L23Y, T26S, V47R, H50E, L52F, S189V
B8: MTSP-1 Q38H/I41S/D60bT/F60eS/ins97aV/F97D/T98P/F99L/C122S/G151H/Q175L/Q192V (enzyme)
chain: B1 chain with L23H, T26S, V47T, H50S, L52Y, T92D, E93V, G94P, G146H, S189V
B9: MTSP-1 Q38H/I41S/D60bT/F60eS/Y60gW/ins97aV/F97D/T98P/F99L/C122S/G151H/Q175L/Q192V (enzyme)
chain: B1 chain with L23H, T26S, V47T, H50S, L52W, T92D, E93V, G94P, G146H, S189V
B10: MTSP-1 Q38H/I41S/D60bT/F60eS/Y60gW/ins97aV/F97D/T98P/F99L/C122S/G151N/Q175A/Q192D (enzyme)
chain: VVGGTDADEGEWPWQVSLHALGHGHSCGASLISPNWLVSAAHCYIDTRGSRWSDPTQWTAFLGLHDQSQRSAPGVQERRLKRIISHPFFNDDVPLDYDIALLELEKPAEYSSMVRPISLPDASHVFPAGKAIWVTGWGHTQYGGTNALILQKGEIRVINQTTCENLLPQAITPRMMCVGFLSGGVDSCDGDSGGPLSSVEADGRIFQAGVVSWGDGCAQRNKPGVYTRLPLFRDWIKENTGV
B11: MTSP-1 Q38H/I41S/D60bT/F60eS/Y60gW/ins97aV/F97D/T98P/F99L/C122S/G151N/Q175L/Q192E (enzyme)
chain: B10 chain with A170L, D189E
B12: MTSP-1 Q38H/I41A/D60bE/F60eH/Y60gW/ins97aE/F97T/T98G/F99L/C122S/G151H/Q175L/Q192D (enzyme)
chain: B1 chain with L23H, T26A, V47E, L52W, G146H, S189D
B13: MTSP-1 Q38H/I41A/D60bT/F60eK/Y60gW/ins97aE/F97T/T98G/F99L/C122S/G151H/Q175L/Q192D (enzyme)
chain: B10 chain with S26A, S50K, D92T, V93E, P94G, N146H, A170L
B14: MTSP-1 Q38H/I41A/D60bV/F60eI/Y60gW/ins97aE/F97T/T98G/F99L/C122S/G151H/Q175L/Q192D (enzyme)
chain: B1 chain with L23H, T26A, H50I, L52W, G146H, S189D
B15: MTSP-1 Q38E/I41S/D60bV/F60eK/Y60gW/ins97aE/F97T/T98G/F99L/C122S/G151H/Q175L/Q192D (enzyme)
chain: B1 chain with L23E, T26S, H50K, L52W, G146H, S189D
B16: MTSP-1 Q38H/I41S/L52M/D60bG/ins97aV/F97D/T98P/F99L/M117K/C122S/I136L/Q192G/D217A (enzyme)
chain: B10 chain with L37M, T47G, S50F, W52Y, M113K, I132L, N146G, A170Q, D189G, D215A
B17: MTSP-1 Q38E/I41A/D60bH/ins97aV/F97D/T98P/F99L/C122S/Q192G/Q209L/D217H (enzyme)
chain: B10 chain with H23E, S26A, T47H, S50F, W52Y, N146G, A170Q, D189G, Q207L, D215H
B18: MTSP-1 I41S/D60bT/F93L/ins97aV/F97D/T98P/F99L/C122S/Q192G/D217H (enzyme)
chain: B10 chain with H23Q, S50F, W52Y, F88L, N146G, A170Q, D189G, D215H
B19: MTSP-1 I41T/D60bH/ins97aV/F97D/T98P/F99L/C122S/Q192G/D217I (enzyme)
chain: B10 chain with H23Q, S26T, T47H, S50F, W52Y, N146G, A170Q, D189G, D215I
B20: MTSP-1 Q38H/I41S/D60bS/ins97aV/F97D/T98P/F99L/M117L/C122S/I136T/Q192G/D217I (enzyme)
chain: B10 chain with T47S, S50F, W52Y, M113L, I132T, N146G, A170Q, D189G, D215I
B21: MTSP-1 Q38R/I41T/D60bT/ins97aV/F97D/T98P/F99L/C122S/I136V/Q192G/D217N/L233Q (enzyme)
chain: B10 chain with H23R, S26T, S50F, W52Y, I132V, N146G, A170Q, D189G, D215N, L231Q
B22: MTSP-1 Q38H/I41A/D60bW/ins97aV/F97D/T98P/F99L/C122S/I136M/Q192G/D217N (enzyme)
chain: B10 chain with S26A, T47W, S50F, W52Y, I132M, N146G, A170Q, D189G, D215N
B23: MTSP-1 Q38H/I41S/P49Q/D60bS/F93L/ins97aV/F97D/T98P/F99L/C122S/Q192G/D217Q (enzyme)
chain: B10 chain with P34Q, T47S, S50F, W52Y, F88L, N146G, A170Q, D189G, D215Q

Target: plasma purified human complement protein C3 (human) (UniProt P01024)
Experiment: cell-based or functional assay

Sequence of plasma purified human complement protein C3 (human) (P01024 23-667, chain 1 of 2): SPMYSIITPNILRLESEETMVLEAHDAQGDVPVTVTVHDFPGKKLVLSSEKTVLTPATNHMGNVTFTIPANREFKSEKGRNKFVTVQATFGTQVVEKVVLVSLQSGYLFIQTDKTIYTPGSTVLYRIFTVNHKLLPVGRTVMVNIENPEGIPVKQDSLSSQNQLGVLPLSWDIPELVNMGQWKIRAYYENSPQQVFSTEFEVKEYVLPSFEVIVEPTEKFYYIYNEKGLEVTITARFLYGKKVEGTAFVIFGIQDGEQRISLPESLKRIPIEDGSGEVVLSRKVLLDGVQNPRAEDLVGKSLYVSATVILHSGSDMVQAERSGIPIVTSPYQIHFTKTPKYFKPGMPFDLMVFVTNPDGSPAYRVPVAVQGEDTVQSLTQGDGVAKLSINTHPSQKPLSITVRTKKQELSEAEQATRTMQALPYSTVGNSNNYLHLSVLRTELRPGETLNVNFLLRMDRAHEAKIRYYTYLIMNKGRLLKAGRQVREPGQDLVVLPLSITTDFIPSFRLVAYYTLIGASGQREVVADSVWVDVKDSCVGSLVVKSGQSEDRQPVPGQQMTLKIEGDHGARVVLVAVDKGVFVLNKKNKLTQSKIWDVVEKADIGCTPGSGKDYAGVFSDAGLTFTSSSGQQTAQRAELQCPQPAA
Sequence of plasma purified human complement protein C3 (human) (P01024 672-1663, chain 2 of 2): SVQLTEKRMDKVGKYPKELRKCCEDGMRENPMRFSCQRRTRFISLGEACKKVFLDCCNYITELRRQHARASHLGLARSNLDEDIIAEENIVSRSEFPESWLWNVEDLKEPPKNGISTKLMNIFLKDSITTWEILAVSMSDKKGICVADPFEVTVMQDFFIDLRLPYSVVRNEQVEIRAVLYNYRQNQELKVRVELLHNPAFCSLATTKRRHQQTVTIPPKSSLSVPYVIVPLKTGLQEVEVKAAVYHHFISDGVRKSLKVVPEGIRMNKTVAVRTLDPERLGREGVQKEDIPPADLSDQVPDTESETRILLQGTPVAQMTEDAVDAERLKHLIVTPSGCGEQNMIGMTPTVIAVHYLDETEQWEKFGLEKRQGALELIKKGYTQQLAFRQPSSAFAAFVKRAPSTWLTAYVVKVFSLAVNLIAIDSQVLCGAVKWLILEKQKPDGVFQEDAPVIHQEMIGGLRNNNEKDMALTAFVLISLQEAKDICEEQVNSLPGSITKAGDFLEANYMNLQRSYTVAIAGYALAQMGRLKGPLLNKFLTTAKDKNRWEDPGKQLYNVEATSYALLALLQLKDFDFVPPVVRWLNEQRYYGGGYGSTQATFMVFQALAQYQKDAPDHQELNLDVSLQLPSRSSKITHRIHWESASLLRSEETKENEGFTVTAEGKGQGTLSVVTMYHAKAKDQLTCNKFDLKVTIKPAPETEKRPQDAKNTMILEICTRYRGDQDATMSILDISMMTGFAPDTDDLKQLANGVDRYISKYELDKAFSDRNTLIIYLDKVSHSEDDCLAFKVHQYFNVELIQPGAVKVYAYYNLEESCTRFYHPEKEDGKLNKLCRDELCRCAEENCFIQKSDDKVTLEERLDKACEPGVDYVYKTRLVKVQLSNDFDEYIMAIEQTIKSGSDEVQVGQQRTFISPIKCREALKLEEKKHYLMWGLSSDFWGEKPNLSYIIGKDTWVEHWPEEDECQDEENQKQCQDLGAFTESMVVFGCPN

Binder | EC50 of hC3 cleavage [nM]
B1 | 13.1
B2 | 0.866
B3 | 4.77
B4 | 5.72
B5 | 6.67
B6 | 2.42
B7 | 25
B8 | 20.2
B9 | 7.43
B10 | 22.5
B11 | 6.78
B12 | 13.8
B13 | 10.6
B14 | 6.42
B15 | 22.9
B16 | 22
B17 | 10.2
B18 | 27.7
B19 | 4.52
B20 | 2.43
B21 | 39.8
B22 | 3.06
B23 | 48.3

— patent US20240018502A1
